Biological target: soluble HA-tagged canine SLAM (UniProt Q95MM9)
Conditions: parent: est. 100; read off a plot

Substance	percent of parent
CDV H-wt, full length attachment protein (hemagglutinin) H of canine distemper virus strain A75/17, FLAG-tagged D132A	98 % to control
CDV H-wt, full length attachment protein (hemagglutinin) H of canine distemper virus strain A75/17, FLAG-tagged D135A	130 % to control
CDV H-wt, full length attachment protein (hemagglutinin) H of canine distemper virus strain A75/17, FLAG-tagged E130A	54 % to control
CDV H-wt, full length attachment protein (hemagglutinin) H of canine distemper virus strain A75/17, FLAG-tagged F131A	93 % to control
CDV H-wt, full length attachment protein (hemagglutinin) H of canine distemper virus strain A75/17, FLAG-tagged F133A	160 % to control
CDV H-wt, full length attachment protein (hemagglutinin) H of canine distemper virus strain A75/17, FLAG-tagged H137A	86 % to control
CDV H-wt, full length attachment protein (hemagglutinin) H of canine distemper virus strain A75/17, FLAG-tagged L136A	70 % to control
CDV H-wt, full length attachment protein (hemagglutinin) H of canine distemper virus strain A75/17, FLAG-tagged N126A	94 % to control
CDV H-wt, full length attachment protein (hemagglutinin) H of canine distemper virus strain A75/17, FLAG-tagged N128A	84 % to control
CDV H-wt, full length attachment protein (hemagglutinin) H of canine distemper virus strain A75/17, FLAG-tagged P127A	61 % to control
CDV H-wt, full length attachment protein (hemagglutinin) H of canine distemper virus strain A75/17, FLAG-tagged R129A	110 % to control
CDV H-wt, full length attachment protein (hemagglutinin) H of canine distemper virus strain A75/17, FLAG-tagged R134A	110 % to control
CDV H-wt, full length attachment protein (hemagglutinin) H of canine distemper virus strain A75/17, FLAG-tagged W138A	98 % to control

— paper PMC4422687
